Reference: patent US20250313631A1

Columns and labels:
[1] = molecular target: recombinant mouse VISTA (His-tagged) (mouse) (UniProt Q9D659); assay: ELISA, plate coated with mouse VISTA
[2] = molecular target: recombinant mouse VISTA (His-tagged) (mouse) (UniProt Q9D659); assay: ELISA, plate coated with mouse VISTA; unit nM from the legend paragraph 697
[3] = molecular target: recombinant human VISTA (His-tagged) (human) (UniProt Q9H7M9); assay: ELISA, plate coated with human VISTA; unit nM from the legend paragraph 699
[4] = molecular target: recombinant cynomolgus macaque VISTA (His-tagged) (cynomolgus macaque); assay: ELISA, plate coated with cyno VISTA
[5] = molecular target: recombinant mouse VISTA (His-tagged) (mouse) (UniProt Q9D659); assay: ELISA, plate coated with mouse VISTA; unit nM from the legend paragraph 699
[6] = molecular target: recombinant human VISTA (His-tagged) (human) (UniProt Q9H7M9); assay: ELISA, plate coated with human VISTA
[7] = molecular target: recombinant rat VISTA (His-tagged) (rat); assay: ELISA, plate coated with rat VISTA
[8] = molecular target: recombinant human VISTA (His-tagged) (human) (UniProt Q9H7M9); assay: ELISA, plate coated with human VISTA; unit nM from the legend paragraph 698
[9] = molecular target: recombinant human VISTA (His-tagged) (human) (UniProt Q9H7M9); assay: ELISA, plate coated with human VISTA; unit nM from the legend paragraph 697
[10] = molecular target: recombinant mouse VISTA (His-tagged) (mouse) (UniProt Q9D659); assay: ELISA, plate coated with mouse VISTA; unit nM from the legend paragraph 698
[11] = molecular target: human VISTA expressed on cells (human) (UniProt Q9H7M9); assay: flow cytometry, FITC-A; HEK293 VISTA O/E cells (unstained cells: MFI 0.12)
[12] = molecular target: human FcγRIII (CD16a) (human) (UniProt P08637); assay: ELISA, plate coated with human CD16a (FcγRIII), detection with HRP anti-human Fc antibody
Sequence of human FcγRIII (CD16a) (human) (P08637 17-208 limits assumed): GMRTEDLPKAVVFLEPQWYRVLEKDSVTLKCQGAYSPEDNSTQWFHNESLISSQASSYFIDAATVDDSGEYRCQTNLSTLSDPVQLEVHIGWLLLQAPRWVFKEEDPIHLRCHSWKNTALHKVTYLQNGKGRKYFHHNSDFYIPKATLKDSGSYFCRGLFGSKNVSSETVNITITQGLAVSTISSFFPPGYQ

Fc-tagged VSIG-3 = Fc-tagged VSIG-3 (UniProt Q5DX21); assay: BLI, 100 nM Fc-tagged VSIG-3 on anti-human Fc biosensor, VISTA as analyte from 3000 nM

Sequence of recombinant mouse VISTA (His-tagged) (mouse) (Q9D659 33-191 limits assumed): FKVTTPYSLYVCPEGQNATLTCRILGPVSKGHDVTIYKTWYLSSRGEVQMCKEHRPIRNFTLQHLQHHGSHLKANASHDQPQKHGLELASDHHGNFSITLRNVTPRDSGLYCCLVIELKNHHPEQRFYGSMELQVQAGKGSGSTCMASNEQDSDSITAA

Substance: Human isotype (antibody)
- EC50 [1]: > 0.033 µM
- EC50 [2]: 0.077 µM
- EC50 [3]: 0.0985 µM
- EC50 [4]: > 0.033 µM
- EC50 [5]: > 0.2 µM
- EC50 [6]: > 0.033 µM
- EC50 [7]: > 0.033 µM
- EC50 [8]: > 0.2 µM
- EC50 [9]: 0.152 µM
- EC50 [10]: > 0.2 µM

Substance: Isotype (antibody)
- MFI [11]: 0.06

Substance: hIgG1 Isotype Control (antibody)
- EC50 (read off the curve) [12]: 0.001 µM

Substance: recombinant human VISTA (His-tagged) (from UniProt Q9H7M9 33-194) (receptor)
- Kd (Fc-tagged VSIG-3): 5.28 µM
